Assay results as given in publication PMC1361615.

Biological target: His-tagged M.RsrI (UniProt P14751 1-319)
Test: size-exclusion chromatography

Chain of His-tagged M.RsrI (P14751 whole entry): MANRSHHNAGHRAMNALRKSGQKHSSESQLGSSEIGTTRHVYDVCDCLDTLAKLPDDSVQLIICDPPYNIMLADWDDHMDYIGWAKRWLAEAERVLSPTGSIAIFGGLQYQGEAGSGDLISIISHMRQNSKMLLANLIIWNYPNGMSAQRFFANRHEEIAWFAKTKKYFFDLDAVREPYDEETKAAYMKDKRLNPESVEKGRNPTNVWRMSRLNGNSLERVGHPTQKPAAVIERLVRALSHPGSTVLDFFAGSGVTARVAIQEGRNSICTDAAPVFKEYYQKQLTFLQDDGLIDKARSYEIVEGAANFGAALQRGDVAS

B1: 25 bp unmethylated duplex, gel filtration (dsDNA)
DNA 1: GGCAGACACGGAATTCCACAGACGG
DNA 2: CCGTCTGTGGAATTCCGTGTCTGCC
modifications: none
- binding result: binds
